One molecule from patent US20040167074A1, “Therapeutic applications of mFLINT polypeptides” (priority 1998, published 2004) can be followed below.

Assay [1] deals with Mouse T cell hybridoma cells (LTT cells). Kind of assay: Murine FasL-mediated apoptosis of LTT cells (Annexin V assay). In kind it is cell-based. As to conditions: test agent 1 μg/ml. On the procedure: LTT,2,14,11 cells (LTT cells), see Glasebrook, Eur.J.Immunol. 17: 1561-65 (1987), were used in this Annexin V assay. On the first day, a 96 well plate was coated with anti-CD3 (2C11) at a serial dilutions. On the second day, 100,000 LTT cells were added, in 50 μl of medium per well, along with 50 μl of medium to the control wells and 50 μl of medium containing:
Group 1. solubleFas (sFas)(FasFc, mouse), with a final concentration of 1 μg/ml
Group 2. mFLINT (human), with a final concentration of 1 ug/ml
Group 3. anti-FasL (mouse), with a final concentration of 1 ug/ml.
These then were incubated overnight, at 37° C., in 5% CO2;
On the following day (Day 3), the cells were collected from each well, washed and labeled with Annexin V and PI, following Flow cytometry analysis.

The test system of assay [2] is LIGHT. Kind of assay: LIGHT cell surface binding assay by flow cytometry. As to conditions: LIGHT expressing cells preincubated with 10 fold excess of non tagged mFLINT. On the procedure:
To confirm the dot blot binding between LIGHT and mFLINT, 293 cells were transiently transfected with LIGHT expression construct overnight. On the next day, cells were detached and incubated with mFLINT-Flag on ice. […] As a control we used vector transfected cells. To make sure that the binding was specific, a competition assay with 10 fold access of untagged mFLINT was performed.
More particularly, 6 well dishes of cells were transfected as above. Both vector and m-LIGHT expressing cells were provided. Cells were detached from the plates by vigorous pipetting with a P100 Pipettor. Then, in PBS/BSA, 0.1%, cells were exposed to one of the following combinations, set forth in a-d.
a. GST/flag, mFLINT/flag, or HVEM at 20 nM;
b. FLINT/flag at 20 nM+GST/flag or mFLINT or HVEM at 200 nM;
c. FLINT/flag at 20 nM+HVEM+anti-human FAS ligand at 200 n-M;
d. anti-human FAS ligand-biotin at 1 μg/ml
Cells were incubated on ice for 30 minutes and washed with PBS/BSA, 0.1%. Cells then were exposed either to anti-human IgG-biotin, 1 μg/ml (for detection of HVEM), or to M2-biotin, 2 μg/ml (for detection of flag conjugates). Cells were incubated on ice for 30 minutes and washed with PBS/BSA, 0.1%. Thereafter, cells were exposed to streptavidin Alexa 488 (SIGMA) at a 1:1000 dilution. Again, cells were incubated on ice for 30 minutes and washed with PBS/BSA, 0.1 1%. Cells were analyzed using a FACSORT flow cytometer (Decton Dickinson) to determine binding.

The subject of assay [3] is BALB/c mice. Kind of assay: LPS/galactosamine liver damage and sepsis model, survival. The format is in vivo, mouse. The conditions noted are these: for survival of mice: FIG. 5, mFLINT 200 μg i.v. On the procedure: Specifically, the activity of the polypeptides of the present invention against acute inflammation and apoptosis was determined using the following procedure. Briefly, BALB/c mice (Harlan) per each experimental group were given intravenous injections (the lateral tail vein) of 6 mg of D(+)-Galactosamine (Sigma, 39F-0539) in 100 μl of PBS (GIBCO-BRL) and 3 μg of Lipopolysaccharide B E. coli 026:B6 (LPS) (Difco, 3920-25-2) in 100 μl of PBS. The LPS was administered, via i.v. injection, 5 minutes after the galactosamine, which was administered i.v. […] C. F. et al J. Immunol. 1989. 142: 3884), and Anti-mouse Fas Ligand (500 μg, PharMingen, M024301) at 0, 2, 4, 6 hour-point respectively. The survival rates of the mice were determined 24 and 48 hours after LPS injection.

Assay [4] relates to Ventricular cardiomyocytes. Kind of assay: Hypoxia/reperfusion-induced cardiomyocyte apoptosis (nucleosome DNA ELISA). Background: An ELISA detects its analyte on a solid surface through an enzyme-linked reagent.
Method: In particular, cardiomyocytes were incubated under hypoxia conditions for 8 hours, followed by 16 hours of culture under normal O2, which mimics the hypoxic conditions found in ischemic cardiac tissue.
Ventricular cardiomyocytes were isolated from the hearts of 1-3 day-old neonatal rats by trypsin digestion and non-myocytes were eliminated by pre-plating. Primary cultures were plated in special-coated 96-well plates in serum-free medium.
Hypoxia was induced by incubating cultures in glucose-free and oxygen-free (5% Co2 and 95% N2) for 8 hours. Reperfusion was mimicked by a 16 hour incubation in glucose-containing medium under normal oxygen conditions. At the end of this incubation, cardiomyocyte apoptosis was measured by the cytoplasmic nucleosome-associated DNA ELISA method. Test samples were incubated with mFLINT (2 μg/ml or 5 μg/ml) and control samples with Z-YVAD-fmk (50 μM), a commercial caspase inhibitor.

B1: mFLINT: mature FLINT without leader peptide (FIG. 3), soluble TNFR superfamily member, made according to Examples 8 and 9 (protein)
chain: VAETPTYPWRDAETGERLVCAQCPPGTFVQRPCRRDSPTTCGPCPPRHYTQFWNYLERCRYCNVLCGEREEEARACHATHNRACRCRTGFFAHAGFCLEHASCPPGAGVIAPGTPSQNTQCQPCPPGTFSASSSSSEQCQPHRNCTALGLALNVPGSSSHDTLCTSCTGFPLSTRVPGAEECERAVIDFVAFQDISIKRLQRLLQALEAPEGWGPTPRAGRAALQLKLRRRLTELLGAQDGALLVRLLQALRVARMPGLERSVRERFLPVH
modifications: glycosylated
On to B1, for which the “% Annexin V Positive” value was determined as 26.47% in assay [1] (Anti CD3 0), 33.24% in assay [1] (Anti CD3 0.11), 35.89% in assay [1] (Anti CD3 0.33) and 34.41% in assay [1] (Anti CD3 1). Also, the “competition of mFLINT-Flag binding” value in assay [2] is “completely reversed to baseline peak”. In addition, the survival of mice in assay [3] (administered 2 hours before LPS/GalN) is 100%; in assay [3] (administered 4 hours after LPS/GalN, survival at 48 hours), 80%. The “animals survived to 48 hours” value in assay [3] (FIG. 6, 50 ug mFLINT) is “about 70%”. Also, the “animals alive 48 hours after LPS/GalN” value in assay [3] (FIG. 6, 400 ug i.p., 2 hours before LPS/GalN challenge) is reported as 100%. Further, the survival result is on record as “about 2%” in assay [3] (FIG. 7, 1 ug iv, 4-hour post-LPS/GalN); 20% in assay [3] (FIG. 7, 5 ug iv, 4-hour post-LPS/GalN); 40% in assay [3] (FIG. 7, 10 ug iv, 4-hour post-LPS/GalN); 80% in assay [3] (FIG. 7, 50 ug iv, 4-hour post-LPS/GalN); 80% in assay [3] (FIG. 7, 100 μg mFLINT IP, 4 hours after LPS/GalN); 100% in assay [3] (FIG. 7, 100 μg mFLINT iv, 4 hours after LPS/GalN). Besides, the “effect on survival, ip compared with iv” value in assay [3] (FIG. 7, 100 μg mFLINT, 12 or 2 hours before LPS/GalN) is listed as “the same”. Further, the animals survived in assay [3] (IP 200 μg mFLINT, 2 hours post-challenge with 3 μg LPS) turned out to be 100%; in assay [3] (IP 200 μg mFLINT, 6 hours post-challenge with 3 μg LPS), 60%; in assay [3] (IP, 4 hours post-challenge with 3 μg LPS (mFLINT 200 μg)), 73%. Also, the “inhibition of hypoxia-induced apoptosis” value in assay [4] (10 μg/ml mFLINT, 8 hours hypoxia, 16 hours normal O2) was found to be 90%. The “inhibition of hypoxia/reperfusion-induced apoptosis” value in assay [4] (mFLINT 2 μg/ml or 5 μg/ml, duplicate experiments) was “essentially complete inhibition”.
